One block for each binder: values may come before it.
Assays:
Assay in all cases: two-hybrid library CCNG1;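 note: natural log of median RNA to DNA barcode read ratio; higher means stronger binding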
P11bH1 = target: T1, P11bH1
T1 chain: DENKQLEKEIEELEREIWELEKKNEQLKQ

P12bH1 = target: T2, P12bH1
T2 chain: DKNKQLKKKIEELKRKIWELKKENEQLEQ

P1bH1 = target: T3, P1bH1
T3 chain: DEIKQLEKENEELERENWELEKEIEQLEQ

P2bH1 = target: T4, P2bH1
T4 chain: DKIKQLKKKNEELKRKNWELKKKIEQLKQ

P3bH1 = target: T5, P3bH1
T5 chain: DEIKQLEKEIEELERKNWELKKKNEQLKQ

P4bH1 = target: T6, P4bH1
T6 chain: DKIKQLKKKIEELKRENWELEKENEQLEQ

P5bH1 = target: T7, P5bH1
T7 chain: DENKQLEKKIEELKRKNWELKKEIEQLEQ

P6bH1 = target: T8, P6bH1
T8 chain: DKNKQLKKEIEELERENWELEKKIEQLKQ

P7bH1 = target: T9, P7bH1
T9 chain: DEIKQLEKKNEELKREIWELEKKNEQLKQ

P8bH1 = target: T10, P8bH1
T10 chain: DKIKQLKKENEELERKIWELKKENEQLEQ

P9bH1 = target: T11, P9bH1
T11 chain: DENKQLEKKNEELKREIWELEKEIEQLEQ

4H1193-bN = target: T12, 4H1193-bN
T12 chain: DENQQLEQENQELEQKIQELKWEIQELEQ

4H1328-bN = target: T13, 4H1328-bN
T13 chain: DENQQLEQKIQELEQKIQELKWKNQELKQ

4H1369-bN = target: T14, 4H1369-bN
T14 chain: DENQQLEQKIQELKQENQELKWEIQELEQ

4H1387-bN = target: T15, 4H1387-bN
T15 chain: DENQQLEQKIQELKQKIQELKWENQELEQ

4H1406-bN = target: T16, 4H1406-bN
T16 chain: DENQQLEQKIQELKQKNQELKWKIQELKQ

4H1446-bN = target: T17, 4H1446-bN
T17 chain: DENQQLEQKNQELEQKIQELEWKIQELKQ

4H1845-bN = target: T18, 4H1845-bN
T18 chain: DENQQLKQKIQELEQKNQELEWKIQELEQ

4H2576-bN = target: T19, 4H2576-bN
T19 chain: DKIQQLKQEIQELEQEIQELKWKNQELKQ

4H2610-bN = target: T20, 4H2610-bN
T20 chain: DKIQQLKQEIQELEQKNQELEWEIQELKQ

4H2667-bN = target: T21, 4H2667-bN
T21 chain: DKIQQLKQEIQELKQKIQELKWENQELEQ

4H2697-bN = target: T22, 4H2697-bN
T22 chain: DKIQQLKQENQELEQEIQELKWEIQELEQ

4H3189-bN = target: T23, 4H3189-bN
T23 chain: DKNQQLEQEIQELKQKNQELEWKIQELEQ

4H331-bN = target: T24, 4H331-bN
T24 chain: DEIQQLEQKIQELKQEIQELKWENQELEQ

4H3592-bN = target: T25, 4H3592-bN
T25 chain: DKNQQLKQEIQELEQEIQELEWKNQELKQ

4H3601-bN = target: T26, 4H3601-bN
T26 chain: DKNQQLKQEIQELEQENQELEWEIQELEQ

4H3606-bN = target: T27, 4H3606-bN
T27 chain: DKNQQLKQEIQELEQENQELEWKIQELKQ

4H370-bN = target: T28, 4H370-bN
T28 chain: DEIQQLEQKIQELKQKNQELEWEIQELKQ

4H3782-bN = target: T29, 4H3782-bN
T29 chain: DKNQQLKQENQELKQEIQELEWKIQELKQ

4H3843-bN = target: T30, 4H3843-bN
T30 chain: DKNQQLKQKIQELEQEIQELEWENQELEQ

4H3907-bN = target: T31, 4H3907-bN
T31 chain: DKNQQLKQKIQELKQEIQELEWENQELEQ

4H4001-bN = target: T32, 4H4001-bN
T32 chain: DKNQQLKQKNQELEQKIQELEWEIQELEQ

4H4038-bN = target: T33, 4H4038-bN
T33 chain: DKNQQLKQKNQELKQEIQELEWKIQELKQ

4H462-bN = target: T34, 4H462-bN
T34 chain: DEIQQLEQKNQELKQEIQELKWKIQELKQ

4H568-bN = target: T35, 4H568-bN
T35 chain: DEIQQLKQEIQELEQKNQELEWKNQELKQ

4H607-bN = target: T36, 4H607-bN
T36 chain: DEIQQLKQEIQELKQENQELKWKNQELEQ

4H687-bN = target: T37, 4H687-bN
T37 chain: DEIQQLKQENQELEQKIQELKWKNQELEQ

4H72-bN = target: T38, 4H72-bN
T38 chain: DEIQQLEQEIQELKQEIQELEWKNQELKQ

4H797-bN = target: T39, 4H797-bN
T39 chain: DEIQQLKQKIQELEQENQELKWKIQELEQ

4H883-bN = target: T40, 4H883-bN
T40 chain: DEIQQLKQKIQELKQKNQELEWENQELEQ

4H918-bN = target: T41, 4H918-bN
T41 chain: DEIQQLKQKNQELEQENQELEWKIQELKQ

4H953-bN = target: T42, 4H953-bN
T42 chain: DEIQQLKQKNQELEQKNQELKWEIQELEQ

4H967-bN = target: T43, 4H967-bN
T43 chain: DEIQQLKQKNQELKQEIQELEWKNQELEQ

4H112-bA = target: T44, 4H112-bA
T44 chain: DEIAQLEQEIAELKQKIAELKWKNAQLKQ

4H1158-bA = target: T45, 4H1158-bA
T45 chain: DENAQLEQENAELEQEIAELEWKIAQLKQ

4H118-bA = target: T46, 4H118-bA
T46 chain: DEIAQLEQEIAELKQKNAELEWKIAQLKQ

4H170-bA = target: T47, 4H170-bA
T47 chain: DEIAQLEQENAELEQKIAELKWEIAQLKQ

4H1831-bA = target: T48, 4H1831-bA
T48 chain: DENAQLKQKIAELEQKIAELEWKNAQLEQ

4H2586-bA = target: T49, 4H2586-bA
T49 chain: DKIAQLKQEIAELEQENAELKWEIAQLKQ

4H2627-bA = target: T50, 4H2627-bA
T50 chain: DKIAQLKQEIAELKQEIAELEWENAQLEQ

4H2673-bA = target: T51, 4H2673-bA
T51 chain: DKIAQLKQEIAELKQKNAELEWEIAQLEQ

4H2702-bA = target: T52, 4H2702-bA
T52 chain: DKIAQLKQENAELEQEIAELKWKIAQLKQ

4H3010-bA = target: T53, 4H3010-bA
T53 chain: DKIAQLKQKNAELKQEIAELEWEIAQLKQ

4H3112-bA = target: T54, 4H3112-bA
T54 chain: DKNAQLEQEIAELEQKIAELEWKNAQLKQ

4H3427-bA = target: T55, 4H3427-bA
T55 chain: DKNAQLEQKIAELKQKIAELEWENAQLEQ

4H346-bA = target: T56, 4H346-bA
T56 chain: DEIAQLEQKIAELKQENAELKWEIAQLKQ

4H3926-bA = target: T57, 4H3926-bA
T57 chain: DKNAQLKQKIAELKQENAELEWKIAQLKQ

4H4073-bA = target: T58, 4H4073-bA
T58 chain: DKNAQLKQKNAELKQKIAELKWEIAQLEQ

4H457-bA = target: T59, 4H457-bA
T59 chain: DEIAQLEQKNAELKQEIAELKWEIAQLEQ

4H575-bA = target: T60, 4H575-bA
T60 chain: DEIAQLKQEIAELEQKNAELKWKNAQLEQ

4H683-bA = target: T61, 4H683-bA
T61 chain: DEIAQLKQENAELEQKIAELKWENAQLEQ

4H754-bA = target: T62, 4H754-bA
T62 chain: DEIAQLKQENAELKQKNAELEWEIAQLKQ

4H780-bA = target: T63, 4H780-bA
T63 chain: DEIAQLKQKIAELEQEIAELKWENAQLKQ

4H797-bA = target: T64, 4H797-bA
T64 chain: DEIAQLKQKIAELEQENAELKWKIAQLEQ

4H855-bA = target: T65, 4H855-bA
T65 chain: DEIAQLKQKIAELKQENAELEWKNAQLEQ

4H918-bA = target: T66, 4H918-bA
T66 chain: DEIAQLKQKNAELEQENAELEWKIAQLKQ

4H953-bA = target: T67, 4H953-bA
T67 chain: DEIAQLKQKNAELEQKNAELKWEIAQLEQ

4H968-bA = target: T68, 4H968-bA
T68 chain: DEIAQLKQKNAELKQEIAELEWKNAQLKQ

O8-bH = target: T69, O8-bH
T69 chain: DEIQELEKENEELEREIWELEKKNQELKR

4H264-bH = target: T70, 4H264-bH
T70 chain: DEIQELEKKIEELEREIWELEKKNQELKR

Binder: DENKQLEKEIEELEREIWELEKKNEQLKQ [P11bH1]
- interaction score (P11bH1): 0
- interaction score (P12bH1): 0.0252
- interaction score (P1bH1): -2.02
- interaction score (P2bH1): 1.25
- interaction score (P3bH1): -0.0263
- interaction score (P4bH1): 1.12
- interaction score (P5bH1): 1.1
- interaction score (P6bH1): 0.725
- interaction score (P7bH1): -0.507
- interaction score (P8bH1): 0.239
- interaction score (P9bH1): -0.076

Binder: DENQQLEQKIQELEQKIQELKWKNQELKQ [4H1328-bN]
- interaction score (4H1328-bN): 0.393
- interaction score (4H1369-bN): -0.223
- interaction score (4H1446-bN): 0.527
- interaction score (4H1845-bN): -1.61
- interaction score (4H2576-bN): 1.57
- interaction score (4H2610-bN): 0.84
- interaction score (4H264-bH): 1.68
- interaction score (4H2667-bN): 1.46
- interaction score (4H2697-bN): -0.465
- interaction score (4H3189-bN): -0.232
- interaction score (4H331-bN): 1.8
- interaction score (4H3606-bN): -0.42
- interaction score (4H370-bN): -0.748
- interaction score (4H3782-bN): -1.38
- interaction score (4H3843-bN): 1.16
- interaction score (4H4001-bN): 1.19
- interaction score (4H462-bN): -1.6
- interaction score (4H568-bN): -0.31
- interaction score (4H607-bN): -0.376
- interaction score (4H687-bN): 0.403
- interaction score (4H72-bN): 0.764
- interaction score (4H797-bN): -0.686
- interaction score (4H883-bN): 0.625
- interaction score (4H918-bN): -0.287
- interaction score (4H953-bN): -0.513
- interaction score (4H967-bN): 0.0544

The next lines start with the values.

- interaction score (4H1193-bN): -1.79
- interaction score (4H1328-bN): -0.785
- interaction score (4H1369-bN): -0.409
- interaction score (4H1387-bN): -2.15
- interaction score (4H1406-bN): -0.457
- interaction score (4H1446-bN): -0.688
- interaction score (4H1845-bN): -0.197
- interaction score (4H2576-bN): -2.2
- interaction score (4H2610-bN): -2.18
- interaction score (4H2667-bN): -1.42
- interaction score (4H2697-bN): -0.604
- interaction score (4H3189-bN): -0.76
- interaction score (4H331-bN): -1.06
- interaction score (4H3592-bN): -0.683
- interaction score (4H3601-bN): -0.788
- interaction score (4H3606-bN): -0.563
- interaction score (4H370-bN): -1.1
- interaction score (4H3782-bN): 1.24
- interaction score (4H3843-bN): -1.2
- interaction score (4H3907-bN): -0.628
- interaction score (4H4001-bN): -0.667
- interaction score (4H4038-bN): 1.89
- interaction score (4H462-bN): 1.11
- interaction score (4H568-bN): -0.982
- interaction score (4H607-bN): -0.718
- interaction score (4H687-bN): -0.463
- interaction score (4H72-bN): -2.07
- interaction score (4H797-bN): -0.958
- interaction score (4H883-bN): -0.365
- interaction score (4H918-bN): -1.23
- interaction score (4H953-bN): -0.991
- interaction score (4H967-bN): -0.916
Binder: DENQQLEQENQELEQKIQELKWEIQELEQ [4H1193-bN]

- interaction score (4H112-bA): 2.02
- interaction score (4H1158-bA): 0.722
- interaction score (4H118-bA): -1.17
- interaction score (4H170-bA): 0.905
- interaction score (4H1831-bA): -0.538
- interaction score (4H2586-bA): -0.329
- interaction score (4H2627-bA): 1.89
- interaction score (4H2673-bA): 1.17
- interaction score (4H2702-bA): 0.586
- interaction score (4H3010-bA): 1.69
- interaction score (4H3112-bA): 1.9
- interaction score (4H3427-bA): 1.34
- interaction score (4H346-bA): -0.491
- interaction score (4H3907-bN): 1.94
- interaction score (4H3926-bA): 0.327
- interaction score (4H4073-bA): 1.5
- interaction score (4H457-bA): 1.18
- interaction score (4H575-bA): -0.781
- interaction score (4H683-bA): 0.303
- interaction score (4H754-bA): -0.627
- interaction score (4H780-bA): -0.588
- interaction score (4H797-bA): 0.104
- interaction score (4H855-bA): 0.496
- interaction score (4H918-bA): -1.12
- interaction score (4H953-bA): 0.0535
- interaction score (4H968-bA): 0.422
- interaction score (O8-bH): -2.98
Binder: DEIAQLEQEIAELKQKIAELKWKNAQLKQ [4H112-bA]
